T1: Human FKBP51 (51-kDa FK506-binding protein) (human, UniProt Q13451 1-457)
T1 sequence (looked up): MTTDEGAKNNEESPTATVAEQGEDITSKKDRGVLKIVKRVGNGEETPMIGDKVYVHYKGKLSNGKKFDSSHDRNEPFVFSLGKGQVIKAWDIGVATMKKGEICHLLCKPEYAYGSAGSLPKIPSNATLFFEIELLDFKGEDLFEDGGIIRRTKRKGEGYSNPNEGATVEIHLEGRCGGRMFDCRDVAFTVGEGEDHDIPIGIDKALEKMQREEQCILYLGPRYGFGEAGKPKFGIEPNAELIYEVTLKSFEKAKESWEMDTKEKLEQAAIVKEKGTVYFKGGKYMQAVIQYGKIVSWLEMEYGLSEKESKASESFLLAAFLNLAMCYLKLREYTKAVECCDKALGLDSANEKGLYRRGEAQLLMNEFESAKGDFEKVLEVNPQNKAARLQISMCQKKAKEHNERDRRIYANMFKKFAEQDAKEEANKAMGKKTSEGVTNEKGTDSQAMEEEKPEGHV

T2: Human FKBP52 (52-kDa FK506-binding protein) (human, UniProt Q02790 1-459)
T2 sequence (looked up): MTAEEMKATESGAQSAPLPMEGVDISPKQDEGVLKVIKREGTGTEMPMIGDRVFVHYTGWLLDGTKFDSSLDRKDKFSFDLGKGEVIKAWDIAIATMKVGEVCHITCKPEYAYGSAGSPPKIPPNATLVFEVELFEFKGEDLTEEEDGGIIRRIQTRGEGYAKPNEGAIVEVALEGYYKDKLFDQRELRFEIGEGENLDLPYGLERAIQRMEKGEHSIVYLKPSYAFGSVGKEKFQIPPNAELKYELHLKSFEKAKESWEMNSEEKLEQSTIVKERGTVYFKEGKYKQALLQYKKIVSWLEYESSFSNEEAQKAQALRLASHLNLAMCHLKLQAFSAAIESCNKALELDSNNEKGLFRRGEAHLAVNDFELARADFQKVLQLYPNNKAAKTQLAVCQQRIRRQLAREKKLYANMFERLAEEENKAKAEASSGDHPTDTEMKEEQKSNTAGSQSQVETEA

B1: Human DnaJC7 (natural protein, UniProt Q99615 1-494, looked up)
chain: MAAAAECDVVMAATEPELLDDQEAKREAETFKEQGNAYYAKKDYNEAYNYYTKAIDMCPKNASYYGNRAATLMMLGRFREALGDAQQSVRLDDSFVRGHLREGKCHLSLGNAMAACRSFQRALELDHKNAQAQQEFKNANAVMEYEKIAETDFEKRDFRKVVFCMDRALEFAPACHRFKILKAECLAMLGRYPEAQSVASDILRMDSTNADALYVRGLCLYYEDCIEKAVQFFVQALRMAPDHEKACIACRNAKALKAKKEDGNKAFKEGNYKLAYELYTEALGIDPNNIKTNAKLYCNRGTVNSKLRKLDDAIEDCTNAVKLDDTYIKAYLRRAQCYMDTEQYEEAVRDYEKVYQTEKTKEHKQLLKNAQLELKKSKRKDYYKILGVDKNASEDEIKKAYRKRALMHHPDRHSGASAEVQKEEEKKFKEVGEAFTILSDPKKKTRYDSGQDLDEEGMNMGDFDPNNIFKAFFGGPGGFSFEASGPGNFFFQFG
B2: Human CHIP (carboxyl terminus of Hsc70 interacting protein) (natural protein, UniProt Q9UNE7 1-303, looked up)
chain: MKGKEEKEGGARLGAGGGSPEKSPSAQELKEQGNRLFVGRKYPEAAACYGRAITRNPLVAVYYTNRALCYLKMQQHEQALADCRRALELDGQSVKAHFFLGQCQLEMESYDEAIANLQRAYSLAKEQRLNFGDDIPSALRIAKKKRWNSIEERRIHQESELHSYLSRLIAAERERELEECQRNHEGDEDDSHVRAQQACIEAKHDKYMADMDELFSQVDEKRKKRDIPDYLCGKISFELMREPCITPSGITYDRKDIEEHLQRVGHFDPVTRSPLTQEQLIPNLAMKEVIDAFISENGWVEDY

Common to all, as to assay: fluorescence polarisation
In general terms: Fluorescence polarisation rises when a labelled molecule tumbles more slowly, as on binding a larger partner.

The target of test [1] is Human Hsp72 (HSPA1A), full-length (human, UniProt P0DMV8 1-641).
Human Hsp72 (HSPA1A), full-length, sequence (P0DMV8 whole entry): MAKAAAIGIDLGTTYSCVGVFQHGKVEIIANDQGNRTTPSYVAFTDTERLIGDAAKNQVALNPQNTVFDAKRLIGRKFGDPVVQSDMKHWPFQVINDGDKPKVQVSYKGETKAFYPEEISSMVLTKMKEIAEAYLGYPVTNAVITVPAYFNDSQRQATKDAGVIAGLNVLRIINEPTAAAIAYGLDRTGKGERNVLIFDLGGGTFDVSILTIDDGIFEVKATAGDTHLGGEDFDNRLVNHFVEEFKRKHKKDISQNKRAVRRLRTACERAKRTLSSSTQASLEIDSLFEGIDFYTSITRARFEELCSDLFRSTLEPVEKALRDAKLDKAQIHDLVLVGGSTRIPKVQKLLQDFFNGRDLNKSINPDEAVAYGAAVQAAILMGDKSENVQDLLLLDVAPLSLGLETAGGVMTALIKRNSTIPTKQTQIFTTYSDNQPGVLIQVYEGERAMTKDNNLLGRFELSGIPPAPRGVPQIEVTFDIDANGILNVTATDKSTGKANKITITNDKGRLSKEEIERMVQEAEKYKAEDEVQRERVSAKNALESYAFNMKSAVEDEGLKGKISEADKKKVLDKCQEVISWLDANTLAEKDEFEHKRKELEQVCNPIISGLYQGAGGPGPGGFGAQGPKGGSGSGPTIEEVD
A further test concerns the target Hop K8A (human, UniProt P31948 1-543, K8A).
Test [2] addresses T1, Human FKBP51 (51-kDa FK506-binding …).
For test [3], the target named is T2, Human FKBP52 (52-kDa FK506-binding …).
Another test deals with Hop R77A (human, UniProt P31948 1-543, R77A).
Test [4] addresses B2.
Test [5] addresses Human Hop (Hsp70/Hsp90 organizing protein) (human, UniProt P31948 1-543).

The values that follow come from publication PMC4714923 (Biochemistry, 2015).

Where no end group is shown, it is not given here. 5‑Fam = 5-carboxyfluorescein; Ahx = NCCCCCC(=O)O A value given as a limit tells only on which side of the number the result lay.

Consider B1, for which the binding result in test [1] was “binds”.
As a reminder, the Kd is the free concentration of one partner at which half of the binding sites on the other are occupied at equilibrium, for simple one-to-one binding. A lower Kd goes with a tighter complex. On to {5‑Fam-Ahx}-SSGPTIEEVD [Hsc70 C-terminal tracer (Fam-SSGPTIEEVD)], for which the Kd was above 25 µM with Hop K8A, above 75 µM in test [2], above 75 µM in test [3] and above 25 µM with Hop R77A.
Turning to {5‑Fam-Ahx}-GSGPTIEEVD [Hsp72 C-terminal tracer (Fam-GSGPTIEEVD)], the Kd is above 25 µM with Hop K8A, above 75 µM in test [3], 0.51 µM in test [4] and above 25 µM with Hop R77A.
Regarding {5‑Fam-Ahx}-DDTSRMEKVD [Hsp90α Lys mutant tracer (Fam-DDTSRMEKVD)], the Kd in test [2] and in test [3] was above 25 µM each time.
Molecule {5‑Fam-Ahx}-DDTSRMEAVD [Hsp90α Ala mutant tracer (Fam-DDTSRMEAVD)] had a Kd in test [2] of 4.63 µM.
Regarding {5‑Fam-Ahx}-DDTSRIEEVD [mutant Hsp90α tracer (Fam-DDTSRIEEVD)], the dissociation constant Kd in test [2], in test [3] and in test [5] was above 25 µM throughout.
In the case of B2, in test [1], the binding result is reported as “binds”.
In the case of {5‑Fam-Ahx}-GSGPTMEEVD [chimeric mutant Hsp72 tracer (Fam-GSGPTMEEVD)], the Kd in test [2] and in test [3] was above 75 µM throughout.
